According to article doi:10.1101/2019.12.23.887380v2:

Substrate: O=[N+]([O-])c1ccc(O[C@@H]2O[C@H](CO)[C@@H](O)[C@H](O)[C@H]2O)cc1
Assay: purified protein
[1] = WT-1 preparation, absorbance followed 1 h
[2] = tested with WT-1, error exceeds value, poorly determined fit

B1: β-glucosidase B (BglB) (Paenibacillus polymyxa) (protein)
chain: MSENTFIFPATFMWGTSTSSYQIEGGTDEGGRTPSIWDTFCQIPGKVIGGDCGDVACDHFHHFKEDVQLMKQLGFLHYRFSVAWPRIMPAAGIINEEGLLFYEHLLDEIELAGLIPMLTLYHWDLPQWIEDEGGWTQRETIQHFKTYASVIMDRFGERINWWNTINEPYCASILGYGTGEHAPGHENWREAFTAAHHILMCHGIASNLHKEKGLTGKIGITLNMEHVDAASERPEDVAAAIRRDGFINRWFAEPLFNGKYPEDMVEWYGTYLNGLDFVQPGDMELIQQPGDFLGINYYTRSIIRSTNDASLLQVEQVHMEEPVTDMGWEIHPESFYKLLTRIEKDFSKGLPILITENGAAMRDELVNGQIEDTGRHGYIEEHLKACHRFIEEGGQLKGYFVWSFLDNFEWAWGYSKRFGIVHINYETQERTPKQSALWFKQMMAKNGF
B1 showed a Km [1] of 5.4 ± 0.88 mM and a kcat [1] of 0.6198 ± 0.056 s⁻¹.

B2: β-glucosidase B (BglB) (Paenibacillus polymyxa; V401A) (protein)
chain: MSENTFIFPATFMWGTSTSSYQIEGGTDEGGRTPSIWDTFCQIPGKVIGGDCGDVACDHFHHFKEDVQLMKQLGFLHYRFSVAWPRIMPAAGIINEEGLLFYEHLLDEIELAGLIPMLTLYHWDLPQWIEDEGGWTQRETIQHFKTYASVIMDRFGERINWWNTINEPYCASILGYGTGEHAPGHENWREAFTAAHHILMCHGIASNLHKEKGLTGKIGITLNMEHVDAASERPEDVAAAIRRDGFINRWFAEPLFNGKYPEDMVEWYGTYLNGLDFVQPGDMELIQQPGDFLGINYYTRSIIRSTNDASLLQVEQVHMEEPVTDMGWEIHPESFYKLLTRIEKDFSKGLPILITENGAAMRDELVNGQIEDTGRHGYIEEHLKACHRFIEEGGQLKGYFAWSFLDNFEWAWGYSKRFGIVHINYETQERTPKQSALWFKQMMAKNGF
Work on B2 yielded a Km (tested with WT-2) of 8.27 ± 1.24 mM and a kcat (tested with WT-2) of 0.341 ± 0.0215 s⁻¹.

B3: β-glucosidase B (BglB) (Paenibacillus polymyxa; Q22T) (protein)
chain: MSENTFIFPATFMWGTSTSSYTIEGGTDEGGRTPSIWDTFCQIPGKVIGGDCGDVACDHFHHFKEDVQLMKQLGFLHYRFSVAWPRIMPAAGIINEEGLLFYEHLLDEIELAGLIPMLTLYHWDLPQWIEDEGGWTQRETIQHFKTYASVIMDRFGERINWWNTINEPYCASILGYGTGEHAPGHENWREAFTAAHHILMCHGIASNLHKEKGLTGKIGITLNMEHVDAASERPEDVAAAIRRDGFINRWFAEPLFNGKYPEDMVEWYGTYLNGLDFVQPGDMELIQQPGDFLGINYYTRSIIRSTNDASLLQVEQVHMEEPVTDMGWEIHPESFYKLLTRIEKDFSKGLPILITENGAAMRDELVNGQIEDTGRHGYIEEHLKACHRFIEEGGQLKGYFVWSFLDNFEWAWGYSKRFGIVHINYETQERTPKQSALWFKQMMAKNGF
B3 was tested, and the Km [2] was 99.02 ± 247.88 mM and the kcat [2] was 0.00433 ± 0.001 s⁻¹.

B4: β-glucosidase B (BglB) (Paenibacillus polymyxa; F155G) (protein)
chain: MSENTFIFPATFMWGTSTSSYQIEGGTDEGGRTPSIWDTFCQIPGKVIGGDCGDVACDHFHHFKEDVQLMKQLGFLHYRFSVAWPRIMPAAGIINEEGLLFYEHLLDEIELAGLIPMLTLYHWDLPQWIEDEGGWTQRETIQHFKTYASVIMDRGGERINWWNTINEPYCASILGYGTGEHAPGHENWREAFTAAHHILMCHGIASNLHKEKGLTGKIGITLNMEHVDAASERPEDVAAAIRRDGFINRWFAEPLFNGKYPEDMVEWYGTYLNGLDFVQPGDMELIQQPGDFLGINYYTRSIIRSTNDASLLQVEQVHMEEPVTDMGWEIHPESFYKLLTRIEKDFSKGLPILITENGAAMRDELVNGQIEDTGRHGYIEEHLKACHRFIEEGGQLKGYFVWSFLDNFEWAWGYSKRFGIVHINYETQERTPKQSALWFKQMMAKNGF
For B4, the Km (tested with WT-1) was 6.10 mM and the kcat (tested with WT-1) was 0.3093 s⁻¹.

B5: β-glucosidase B (BglB) (Paenibacillus polymyxa; Y169M) (protein)
chain: MSENTFIFPATFMWGTSTSSYQIEGGTDEGGRTPSIWDTFCQIPGKVIGGDCGDVACDHFHHFKEDVQLMKQLGFLHYRFSVAWPRIMPAAGIINEEGLLFYEHLLDEIELAGLIPMLTLYHWDLPQWIEDEGGWTQRETIQHFKTYASVIMDRFGERINWWNTINEPMCASILGYGTGEHAPGHENWREAFTAAHHILMCHGIASNLHKEKGLTGKIGITLNMEHVDAASERPEDVAAAIRRDGFINRWFAEPLFNGKYPEDMVEWYGTYLNGLDFVQPGDMELIQQPGDFLGINYYTRSIIRSTNDASLLQVEQVHMEEPVTDMGWEIHPESFYKLLTRIEKDFSKGLPILITENGAAMRDELVNGQIEDTGRHGYIEEHLKACHRFIEEGGQLKGYFVWSFLDNFEWAWGYSKRFGIVHINYETQERTPKQSALWFKQMMAKNGF
B5 gave a Km (tested with WT-2) of 22.2 ± 5.53 mM and a kcat (tested with WT-2) of 0.8428 ± 0.2272 s⁻¹.

B6: β-glucosidase B (BglB) (Paenibacillus polymyxa; W123R) (protein)
chain: MSENTFIFPATFMWGTSTSSYQIEGGTDEGGRTPSIWDTFCQIPGKVIGGDCGDVACDHFHHFKEDVQLMKQLGFLHYRFSVAWPRIMPAAGIINEEGLLFYEHLLDEIELAGLIPMLTLYHRDLPQWIEDEGGWTQRETIQHFKTYASVIMDRFGERINWWNTINEPYCASILGYGTGEHAPGHENWREAFTAAHHILMCHGIASNLHKEKGLTGKIGITLNMEHVDAASERPEDVAAAIRRDGFINRWFAEPLFNGKYPEDMVEWYGTYLNGLDFVQPGDMELIQQPGDFLGINYYTRSIIRSTNDASLLQVEQVHMEEPVTDMGWEIHPESFYKLLTRIEKDFSKGLPILITENGAAMRDELVNGQIEDTGRHGYIEEHLKACHRFIEEGGQLKGYFVWSFLDNFEWAWGYSKRFGIVHINYETQERTPKQSALWFKQMMAKNGF
B6 showed a Km [2] of 49.63 ± 324.02 mM and a kcat [2] of 0.00025 ± 0.0013 s⁻¹.

B7: β-glucosidase B (BglB) (Paenibacillus polymyxa; W438D) (protein)
chain: MSENTFIFPATFMWGTSTSSYQIEGGTDEGGRTPSIWDTFCQIPGKVIGGDCGDVACDHFHHFKEDVQLMKQLGFLHYRFSVAWPRIMPAAGIINEEGLLFYEHLLDEIELAGLIPMLTLYHWDLPQWIEDEGGWTQRETIQHFKTYASVIMDRFGERINWWNTINEPYCASILGYGTGEHAPGHENWREAFTAAHHILMCHGIASNLHKEKGLTGKIGITLNMEHVDAASERPEDVAAAIRRDGFINRWFAEPLFNGKYPEDMVEWYGTYLNGLDFVQPGDMELIQQPGDFLGINYYTRSIIRSTNDASLLQVEQVHMEEPVTDMGWEIHPESFYKLLTRIEKDFSKGLPILITENGAAMRDELVNGQIEDTGRHGYIEEHLKACHRFIEEGGQLKGYFVWSFLDNFEWAWGYSKRFGIVHINYETQERTPKQSALDFKQMMAKNGF
B7 gave a Km (tested with WT-2) of 10.28 ± 2.14 mM and a kcat (tested with WT-2) of 0.1765 ± 0.0275 s⁻¹.
